# Laboratory results published in patent US20190336574A1 (TRUSTEES OF PRINCETON UNIVERSITY, published 2019).
# B1: Peptide-401A (PNSDWNAPAEEAGNW) (peptide)
# peptide: PNSDWNAPAEEAGNW
# notes: also called peptide comprising the single point mutation W401A
# B2: GST-MTDH 406-470 (other)
# fusion protein: DEERASLLKSQEPIPDDQKVSDDDKEKGEGALPTGKSKKKKKKKKKQGEDNSTAQDTEELEKEIR
# B3: W398D* (other, mouse, UniProt Q80WJ7 1-579, looked up)
# single chain: MAARSWQDELAQQAEEGSARLRELLSVGLGFLRTELGLDLGLEPKRYPGWVILVGTGALGLLLLFLLGYGWAAACAGARKKRRSPPRKREEAAPPTPAPDDLAQLKNLRSEEQKKKNRKKLPEKPKPNGRTVEVPEDEVVRNPRSITAKQAPETDKKNEKSKKNKKKSKSDAKAVQNSSRHDGKEVDEGAWETKISHREKRQQRKRDKVLTDSGSLDSTIPGIENIITVTTEQLTTASFPVGSKKNKGDSHLNVQVSNFKSGKGDSTLQVSSRLNENLTVNGGGWSEKSVKLSSQLSEEKWNSVPPASAGKRKTEPSAWTQDTGDTNANGKDWGRNWSDRSIFSGIGSTAEPVSQSTTSDYQWDVSRNQPYIDDEWSGLNGLSSADPSSDWNAPAEEDGNWVDEDRASLLKSQEPISNDQKVSDDDKEKGEGALPTGKSKKKKKKKKKQGEDNSHTQDTEDLEKDTREELPVNTSKARPKQEKACSLKTMSTSDPAEVLIKNSQPVKTLPPAISAEPSITLSKGDSDNSSSQVPPMLQDTDKPKSNAKQNSVPPSQTKSETNWESPKQIKKKKKARRET
# notes: point mutant W398D, murine numbering; named in the legend's footnote and on the sheet; also called mouse W398D MTDH (corresponds to human W401D MTDH)
# Experiments:
# [1] = target: T1, HA-SND1, full-length human, wild type (human, UniProt Q7KZF4 1-910); test: competition in co-IP, 50 uM peptide; competitor MTDH
# T1 construct: Full-length, HA-tagged; Expressed in HEK293T cells, tested in lysate; also called HA-tagged SND1; WT HA-SND1
# T1 sequence: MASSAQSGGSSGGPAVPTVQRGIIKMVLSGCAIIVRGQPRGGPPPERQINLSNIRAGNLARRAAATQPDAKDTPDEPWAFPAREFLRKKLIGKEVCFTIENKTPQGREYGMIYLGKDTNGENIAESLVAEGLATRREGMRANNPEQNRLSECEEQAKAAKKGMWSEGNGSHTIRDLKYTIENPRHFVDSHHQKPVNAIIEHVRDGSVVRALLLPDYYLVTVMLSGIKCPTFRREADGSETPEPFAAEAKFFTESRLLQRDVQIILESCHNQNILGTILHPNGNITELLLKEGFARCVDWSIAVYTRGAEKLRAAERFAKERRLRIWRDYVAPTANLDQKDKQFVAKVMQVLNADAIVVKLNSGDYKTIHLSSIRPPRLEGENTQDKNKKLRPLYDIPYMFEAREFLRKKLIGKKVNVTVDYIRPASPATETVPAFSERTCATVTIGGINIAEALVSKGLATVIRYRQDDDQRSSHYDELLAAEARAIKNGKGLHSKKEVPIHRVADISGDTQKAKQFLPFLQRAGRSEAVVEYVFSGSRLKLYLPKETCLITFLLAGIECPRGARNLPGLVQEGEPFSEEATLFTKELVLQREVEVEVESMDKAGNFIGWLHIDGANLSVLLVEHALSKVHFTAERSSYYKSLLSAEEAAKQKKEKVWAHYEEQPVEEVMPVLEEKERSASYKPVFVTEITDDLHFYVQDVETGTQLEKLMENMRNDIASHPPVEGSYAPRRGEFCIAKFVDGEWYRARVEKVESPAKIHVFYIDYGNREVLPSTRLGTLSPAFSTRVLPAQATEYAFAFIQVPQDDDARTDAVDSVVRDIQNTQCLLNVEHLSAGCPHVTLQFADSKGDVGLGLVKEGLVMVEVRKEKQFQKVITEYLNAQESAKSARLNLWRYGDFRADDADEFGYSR
# Procedure: 293 T cells were co-transfected with HA-SND1 and MYC-MTDH. After 48 hours, the cells were collected and subject to immunoprecipitation assay. Cell lysate was incubated with anti-HA antibody or IgG overnight followed by a two hour incubation with Protein A/G beads to pull down HA-SND1 protein. The beads were washed with lysis buffer and split into five fractions.
# The elution fractions and beads were collected for western blot. (FIGS. 26C and 26D) Cell lyaste was split into 6 fractions. One of the fractions was incubated with IgG and the rest were incubated with anti-HA antibody plus either buffer or indicated peptides. After 24 hours, the lysate was incubated with Protein A/G beads then the beads was washed followed by wash buffer. 50 uM of peptides was used in all the assays.
# [2] = target: T2, His6-SND1ΔC (SND1 residues 1-339) (human, UniProt Q7KZF4 1-339); test: schematic that sums up the GST pull-downs of His6-SND1ΔC
# T2 construct: not shown: N-terminal His tag (His6, His8 or His) with TEV site, pQlink vector
# T2 sequence: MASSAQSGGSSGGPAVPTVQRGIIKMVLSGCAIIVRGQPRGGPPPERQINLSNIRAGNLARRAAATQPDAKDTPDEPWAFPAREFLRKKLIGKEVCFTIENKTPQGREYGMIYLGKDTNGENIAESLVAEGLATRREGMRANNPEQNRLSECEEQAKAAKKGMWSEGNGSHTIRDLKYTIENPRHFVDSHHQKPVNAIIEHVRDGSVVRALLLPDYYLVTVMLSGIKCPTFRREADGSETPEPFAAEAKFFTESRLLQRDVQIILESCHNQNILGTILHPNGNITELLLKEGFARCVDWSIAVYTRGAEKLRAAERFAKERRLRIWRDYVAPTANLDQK
# From the text: FIGS. 7A-E represents determination of key regions and residues mediating the MTDH-SND1 interaction. (FIG. 7A) Schematics of MTDH fragments and mutants with indicated SND1-binding capability. + indicates binding and − indicates no binding based on results shown below. Two putative nuclear localization signals are residues 432-451 for NLS2 and residues 561-580 for NLS3. […] (FIG. 7B) Pulldown of His6-SND1ΔC by GST-tagged MTDH fragments with indicated boundaries. The bound proteins were examined by SDS-PAGE and visualized by Coomassie blue staining. […] For (FIG. 7B) and (FIG. 7C), 1/10 of the His6-SND1ΔC input was shown, and GST alone was used as a negative control. Representative results of 3 independent experiments are shown. (FIG. 7D, FIG. 7E) Lysates from HEK293T cells expressing the indicated ectopic human SND1, AGO2 or MTDH were immunoprecipitated with anti-Myc and immunoblotted with the indicated antibodies.
# To further test whether the physical interaction with SND1 is critical for the function of MTDH, detailed analysis on the interaction of the proteins was conducted. SND1 contains four N-terminal Staphylococcal nuclease (SN) repeats and a C-terminal Tudor-SN hybrid domain. […] This allowed us to use the SND1ΔC fragment for the following in vitro binding studies.
# murine SND1, wild type = target: T3, murine SND1, wild type (mouse, UniProt Q78PY7 1-910); test: anti-MTDH co-IP from PyMT;Mtdh-/- MECs reconstituted with murine MTDH, western blot
# T3 construct: Endogenous protein of murine PyMT mammary tumor cells; also called SND1 (in PyMT tumor cells); WT shRNA-resistant murine SND1
# T3 sequence (looked up): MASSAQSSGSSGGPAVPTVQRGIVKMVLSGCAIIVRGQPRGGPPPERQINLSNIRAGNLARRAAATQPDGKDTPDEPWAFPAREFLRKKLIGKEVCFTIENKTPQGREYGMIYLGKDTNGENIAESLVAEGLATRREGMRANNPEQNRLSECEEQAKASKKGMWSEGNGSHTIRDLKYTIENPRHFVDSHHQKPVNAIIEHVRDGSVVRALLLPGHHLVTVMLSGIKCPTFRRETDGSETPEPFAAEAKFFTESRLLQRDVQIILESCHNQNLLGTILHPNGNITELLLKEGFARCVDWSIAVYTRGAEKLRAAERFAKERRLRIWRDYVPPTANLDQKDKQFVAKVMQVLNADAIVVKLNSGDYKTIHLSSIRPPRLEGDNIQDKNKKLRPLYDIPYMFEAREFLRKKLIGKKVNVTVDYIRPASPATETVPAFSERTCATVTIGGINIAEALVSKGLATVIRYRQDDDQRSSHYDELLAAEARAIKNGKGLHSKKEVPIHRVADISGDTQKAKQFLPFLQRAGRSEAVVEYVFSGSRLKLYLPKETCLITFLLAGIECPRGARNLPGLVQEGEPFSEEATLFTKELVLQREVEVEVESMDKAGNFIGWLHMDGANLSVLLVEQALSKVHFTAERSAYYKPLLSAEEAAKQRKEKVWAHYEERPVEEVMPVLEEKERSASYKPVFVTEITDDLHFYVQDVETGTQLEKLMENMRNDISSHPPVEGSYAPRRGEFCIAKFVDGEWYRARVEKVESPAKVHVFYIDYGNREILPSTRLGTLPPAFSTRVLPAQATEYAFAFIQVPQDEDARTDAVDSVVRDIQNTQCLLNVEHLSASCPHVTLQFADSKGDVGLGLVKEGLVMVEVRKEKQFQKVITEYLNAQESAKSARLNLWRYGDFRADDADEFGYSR
# Procedure: (FIG. 8A, FIG. 8E) Lysates from PyMT;Mtdh−/− MECs reconstituted with vector control, WT or mutant murine MTDH were immunoprecipitated with anti-MTDH antibody and immunoblotted for indicated proteins. (FIG. 8B, FIG. 8F) Mammosphere assays were performed with PyMT;Mtdh−/− pMECs reconstituted with indicated Mtdh constructs. (FIG. 8C, FIG. 8D, FIG. 8G, FIG. 8H) In vivo tumor formation (FIG. 8C, FIG. 8G for tumor incidence; FIG. 8D, FIG. 8H for tumor volumes) were performed at limiting numbers using PyMT;Mtdh−/− pMECs reconstituted with indicated WT or mutant MTDH. *Note: mouse W391D MTDH corresponds to human W394D MTDH; and mouse W398D MTDH corresponds to human W401D MTDH. Statistics: (FIG. 8B, […]) Student's t-test. (FIG. 8C, FIG. 8G) Limiting dilution analysis. (FIG. 8D, FIG. 8H) Mann-Whitney test. Data represent mean±SEM. ***p<0.001, **p<0.01, *p<0.05.
# Immunoprecipitation and western blot For immunoprecipitation (IP) experiments, cultured cells were washed in cold PBS and lysed in lysis buffer (20 mM Tris pH 7.4, 0.15 M NaCl, 1 mM EDTA, 1 mM EGTA, 1% Tx-100, 0.0025 M Na2P2O7, 1 mM α-glycerolphosphate, 1 mM Na3VO4, and 1 mM NaF) with an EDTA-free protease inhibitor mixture (Roche Applied Science) and PMSF. Cell lysates were then incubated on ice for 10 min, centrifuged, and precleared by incubating with protein A/G beads (Santa Cruz Biotechnology) for 1 h at 4° C. […]
binder,measurement,setting,value
B1,effectiveness in blocking the MTDH-SND1 interaction relative to the wild type peptide,[1],~0.5 fold of wild type peptide
B2,binding result,[2],no binding
B3,binding result,"murine SND1, wild type",no binding
